Laboratory results from paper PMC4823995.

Target: Mcm6-SuOn (budding yeast) (UniProt Q02724)
Assay: co-IP

- fold enrichment of Glc7 in the immunoprecipitate against Mcm6-ctrl: 2 fold
Substance: Glc7 phosphatase (PP1) (from UniProt P32598 1-312) (enzyme)
